Assay results taken from PMC10449786.

Target: human citrullinated fibrinogen (hCitFbg) (human) (UniProt P02671)
Assay: ELISA; Fbg or citrullinated Fbg coated (0.8 μg/mL in PBS, overnight 4 °C); recombinant SAA 10–2000 ng/mL added, 1 h at 37 °C; detected with anti-hSAA1; apparent Kd

B1: recombinant human serum amyloid A1 (hSAA1) (natural protein)
chain: RSFFSFLGEAFDGARDMWRAYSDMREANYIGSDKYFHARGNYDAAKRGPGGAWAAEVITDARENIQRFFGHGAEDSLADQAANEWGRSGKDPNHFRPAGLPEKY
  apparent Kd relative to hSAA1-hFbg: 0.5 fold
